Blank lines part the entries; values can stand above or below the molecule they belong to.
Columns and labels:
Assay in all cases: ELISA
Fzd5 CRD = Fzd5 CRD (UniProt Q13467); settings: cited from earlier work
mWnt3a-V5/6xHis = mWnt3a-V5/6xHis (mouse, UniProt P27467 19-352)
[1] = target: T1, purified hSFRP4 (R & D Systems) (human, UniProt Q6FHJ7 19-346)
T1 sequence (looked up): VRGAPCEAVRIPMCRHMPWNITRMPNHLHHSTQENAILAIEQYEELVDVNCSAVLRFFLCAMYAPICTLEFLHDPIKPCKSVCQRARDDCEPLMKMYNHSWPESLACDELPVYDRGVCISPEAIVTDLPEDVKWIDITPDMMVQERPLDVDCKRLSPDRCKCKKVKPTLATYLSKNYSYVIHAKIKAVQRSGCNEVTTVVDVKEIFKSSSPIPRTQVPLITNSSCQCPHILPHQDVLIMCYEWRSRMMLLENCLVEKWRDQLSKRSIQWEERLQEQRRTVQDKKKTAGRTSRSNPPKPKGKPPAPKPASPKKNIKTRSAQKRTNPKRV

Sequence of mWnt3a-V5/6xHis (P27467 19-352): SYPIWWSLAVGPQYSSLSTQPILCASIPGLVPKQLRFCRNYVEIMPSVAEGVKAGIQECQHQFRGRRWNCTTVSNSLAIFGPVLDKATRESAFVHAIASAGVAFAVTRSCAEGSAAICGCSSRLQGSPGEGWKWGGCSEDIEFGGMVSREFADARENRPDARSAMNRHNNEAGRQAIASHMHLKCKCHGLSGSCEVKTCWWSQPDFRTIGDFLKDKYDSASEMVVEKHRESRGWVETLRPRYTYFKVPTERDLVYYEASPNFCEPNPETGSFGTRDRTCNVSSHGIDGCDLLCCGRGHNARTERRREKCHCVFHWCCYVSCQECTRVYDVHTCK

Molecule: Wnt7a (from UniProt O00755)
Kd (Fzd5 CRD): 75.4 nM

Kd (mWnt3a-V5/6xHis): 83.7 nM
B1: hFzd5CRD-Fc IgG (Fc fusion, human, UniProt Q13467 27-150, looked up)
chain: ASKAPVCQEITVPMCRGIGYNLTHMPNQFNHDTQDEAGLEVHQFWPLVEIQCSPDLRFFLCSMYTPICLPDYHKPLPPCRSVCERAKAGCSPLMRQYGFAWPERMSCDRLPVLGRDAEVLCMDY

Kd [1]: 86.5 nM
B2: rWnt7a V5/6xHis (ligand, UniProt O00755 32-349, looked up)
chain: LGASIICNKIPGLAPRQRAICQSRPDAIIVIGEGSQMGLDECQFQFRNGRWNCSALGERTVFGKELKVGSREAAFTYAIIAAGVAHAITAACTQGNLSDCGCDKEKQGQYHRDEGWKWGGCSADIRYGIGFAKVFVDAREIKQNARTLMNLHNNEAGRKILEENMKLECKCHGVSGSCTTKTCWTTLPQFRELGYVLKDKYNEAVHVEPVRASRNKRPTFLKIKKPLSYRKPMDTDLVYIEKSPNYCEEDPVTGSVGTQGRACNKTAPQASGCDLMCCGRGYNTHQYARVWQCNCKFHWCCYVKCNTCSERTEMYTCK

— article PMC2881539 (Analytical biochemistry, 2010)
